Data published in the RNAGym collection of RNA variant scans (doi:10.1073/pnas.2313332121).

B1: TPR t1 (parent)
chain: GACCAAUCUGCCCUCAGAGCUCGAGAACAUCUUCGGAUGCAGAGGAGGCAGGCUUCGGUGGCGCGAUAGCGCCAACGUCCUCAACCUCCAAUGCAUCCCACCACAUGAUGAUGCCUGAAGAGCCUUGGUUUUUUG

Variants of: B1
Test: polymerase ribozyme fitness, log enrichment relative to wild type (log ratio); higher = more active; in vitro selection for triplet polymerase activity
In short: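 Libraries of mutants in each subunit of a heterodimeric triplet polymerase ribozyme were generated by PCR and transcribed. In triplicate, each went through one in vitro selection round: annealing with biotinylated primer, partner subunit and triplets; frozen incubation at −7 °C; gel excision of extended constructs; streptavidin-bead capture; RT-PCR. Fitness, taken from Illumina sequencing of input and output libraries, is the logarithm of a genotype's enrichment over wild-type enrichment, averaged across replicates with inverse-variance weights. The logarithm is base 2, and genotypes needed ≥10 input reads and ≥1 read per output to be kept.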

First: GACCAAUCUGCCCUCAGAGCUCGAGAACAUCUUCGGAUGCAGAGGAGGCAGGCUUCGGUGGCGCGAUAGCGCCAACGUCCUCAACCUCCAAUGCAUCCCACCACAUGAUGAUGCCUGAAUAGCCUUGGUUUUUUG [G120U]
Second: GACCAAUCUGCCCUCAGAGCUCGAGAACAUCUUCGGAUGCAGAGGAGGCAGGCUUCGGUGGCGCGAUAGCGCCAACGUCCUCAACCUCCAAUGCAUCCCACCACAUGAUGAUGCCUGAACAGCCUUGGUUUUUUG [G120C]
The “polymerase ribozyme fitness (log ratio)” value of the first is lower: 0.195 for the first, 1.05 for the second.

Compared with GACCAAUCUGCCCUCAGAGCUCGAGAACAUCUUCGGAUGCAGAGGAGGCAGGCUUCGGUGGCGCGAUAGCGCCAACGUCCUCAACCUCCAAUGCAUCCCACCACAUGAUGAUGCCUGAAAAGCCUUGGUUUUUUG [G120A], GACCAAUCUGCCCUCAGAGCUCGAGAACAUCUUCGGAUGCAGAGGAGGCAGGCUUCGGUGGCGCGAUAGCGCCAACGUCCUCAACCUCCAAUGCAUCCCACCACAUGAUGAUGCCUGAAGCGCCUUGCUUUUUUG [A121C G128C] is lower in “polymerase ribozyme fitness (log ratio)” value: 0.66 for the first, -0.622 for the second.

First: GACCAAUCUGCCCUCAGAGCUCGAGAACAUCUUCGGAUGCAGAGGAGGCAGGCUUCGGUGGCGCGAUAGCGCCAACGUCCUCAACCUCCAAUGCAUCCCACCACAUGAUGAUGCCUGAAGCGCCUUGAUUUUUUG [A121C G128A]
Second: GACCAAUCUGCCCUCAGAGCUCGAGAACAUCUUCGGAUGCAGAGGAGGCAGGCUUCGGUGGCGCGAUAGCGCCAACGUCCUCAACCUCCAAUGCAUCCCACCACAUGAUGAUGCCUGAAUAGCCUUGCUUUUUUG [G120U G128C]
The “polymerase ribozyme fitness (log ratio)” value of the first is higher: 0.0676 for the first, -1.03 for the second.

First: GACCAAUCUGCCCUCAGAGCUCGAGAACAUCUUCGGAUGCAGAGGAGGCAGGCUUCGGUGGCGCGAUAGCGCCAACGUCCUCAACCUCCAAUGCAUCCCACCACAUGAUGAUGCCUGAAGCGCCGUGGUUUUUUG [A121C U125G]
Second: GACCAAUCUGCCCUCAGAGCUCGAGAACAUCUUCGGAUGCAGAGGAGGCAGGCUUCGGUGGCGCGAUAGCGCCAACGUCCUCAACCUCCAAUGCAUCCCACCACAUGAUGAUGCCUGAAAAUCCUUGGUUUUUUG [G120A G122U]
The “polymerase ribozyme fitness (log ratio)” value of the first is higher: 0.923 for the first, 0.476 for the second.

First: GACCAAUCUGCCCUCAGAGCUCGAGAACAUCUUCGGAUGCAGAGGAGGCAGGCUUCGGUGGCGCGAUAGCGCCAACGUCCUCAACCUCCAAUGCAUCCCACCACAUGAUGAUGCCUGAAUAGGCUUGGUUUUUUG [G120U C123G]
Second: GACCAAUCUGCCCUCAGAGCUCGAGAACAUCUUCGGAUGCAGAGGAGGCAGGCUUCGGUGGCGCGAUAGCGCCAACGUCCUCAACCUCCAAUGCAUCCCACCACAUGAUGAUGCCUGAAAAGCCUUGGUUUCUUG [G120A U132C]
The “polymerase ribozyme fitness (log ratio)” value of the first is higher: 1.47 for the first, 0.977 for the second.

Going from GACCAAUCUGCCCUCAGAGCUCGAGAACAUCUUCGGAUGCAGAGGAGGCAGGCUUCGGUGGCGCGAUAGCGCCAACGUCCUCAACCUCCAAUGCAUCCCACCACAUGAUGAUGCCUGAUGAGCCUUGGUUUAUUG [A119U U132A] to GACCAAUCUGCCCUCAGAGCUCGAGAACAUCUUCGGAUGCAGAGGAGGCAGGCUUCGGUGGCGCGAUAGCGCCAACGUCCUCAACCUCCAAUGCAUCCCACCACAUGAUGAUGCCUGAACAGCCUUGGUUUUUUA [G120C G135A], the “polymerase ribozyme fitness (log ratio)” value rises from -0.132 to 0.738.

Going from GACCAAUCUGCCCUCAGAGCUCGAGAACAUCUUCGGAUGCAGAGGAGGCAGGCUUCGGUGGCGCGAUAGCGCCAACGUCCUCAACCUCCAAUGCAUCCCACCACAUGAUGAUGCCUGAACAGCCUUGGUUUUUUU [G120C G135U] to GACCAAUCUGCCCUCAGAGCUCGAGAACAUCUUCGGAUGCAGAGGAGGCAGGCUUCGGUGGCGCGAUAGCGCCAACGUCCUCAACCUCCAAUGCAUCCCACCACAUGAUGAUGCCUGAAAAGCCUUCGUUUUUUG [G120A G127C], the “polymerase ribozyme fitness (log ratio)” value rises from -0.76 to -0.483.

First: GACCAAUCUGCCCUCAGAGCUCGAGAACAUCUUCGGAUGCAGAGGAGGCAGGCUUCGGUGGCGCGAUAGCGCCAACGUCCUCAACCUCCAAUGCAUCCCACCACAUGAUGAUGCCUGAAGUGCCAUGGUUUUUUG [A121U U125A]
Second: GACCAAUCUGCCCUCAGAGCUCGAGAACAUCUUCGGAUGCAGAGGAGGCAGGCUUCGGUGGCGCGAUAGCGCCAACGUCCUCAACCUCCAAUGCAUCCCACCACAUGAUGAUGCCUGAAGUGCCUUGGUUUUUUC [A121U G135C]
The “polymerase ribozyme fitness (log ratio)” value of the first is lower: 1.66 for the first, 2.99 for the second.

Going from GACCAAUCUGCCCUCAGAGCUCGAGAACAUCUUCGGAUGCAGAGGAGGCAGGCUUCGGUGGCGCGAUAGCGCCAACGUCCUCAACCUCCAAUGCAUCCCACCACAUGAUGAUGCCUGAUGAGCCUUUGUUUUUUG [A119U G127U] to GACCAAUCUGCCCUCAGAGCUCGAGAACAUCUUCGGAUGCAGAGGAGGCAGGCUUCGGUGGCGCGAUAGCGCCAACGUCCUCAACCUCCAAUGCAUCCCACCACAUGAUGAUGCCUGAAUAGCCUUGGUUUUUUC [G120U G135C], the “polymerase ribozyme fitness (log ratio)” value rises from -2.01 to 1.16.

Going from GACCAAUCUGCCCUCAGAGCUCGAGAACAUCUUCGGAUGCAGAGGAGGCAGGCUUCGGUGGCGCGAUAGCGCCAACGUCCUCAACCUCCAAUGCAUCCCACCACAUGAUGAUGCCUGAACAGCCUUGCUUUUUUG [G120C G128C] to GACCAAUCUGCCCUCAGAGCUCGAGAACAUCUUCGGAUGCAGAGGAGGCAGGCUUCGGUGGCGCGAUAGCGCCAACGUCCUCAACCUCCAAUGCAUCCCACCACAUGAUGAUGCCUGAUGAGACUUGGUUUUUUG [A119U C123A], the “polymerase ribozyme fitness (log ratio)” value rises from -2.04 to -0.124.

For GACCAAUCUGCCCUCAGAGCUCGAGAACAUCUUCGGAUGCAGAGGAGGCAGGCUUCGGUGGCGCGAUAGCGCCAACGUCCUCAACCUCCAAUGCAUCCCACCACAUGAUGAUGCCUGAUGAGUCUUGGUUUUUUG [A119U C123U], the “polymerase ribozyme fitness (log ratio)” value was 2.17.
